Source: the supplement of paper PMC9116672
± gives the standard deviation of the averaged measurements or the uncertainty stated by the source.

Key:
[1] = duplex melting temperature (HRM, EvaGreen); higher = more stable duplex
Protocol: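 Listed DNA strand annealed 1:1 with its complementary strand (95 °C 5 min, 0.1 °C/s to 20 °C). Melted in 1x NNE buffer (500 mM NaCl, 10 mM Na2HPO4, 1 mM EDTA, pH 7.0) with 1x EvaGreen on a LightCycler96 (37 to 97 °C, 0.1 °C/s). Tm is the peak of -dF/dT at the stated total duplex concentration; 4 replicates are averaged. PS oligos are non-stereospecific (Rp/Sp mixtures).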

[2] = duplex formation free energy ΔG50 (Van't Hoff fit of HRM Tm); higher = less stable duplex; details: temperature for dG: 50 °C, NaCl: 500 mM (unadjusted)
Protocol: (§1)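 Duplex of the listed DNA strand with its complement, in 1x NNE buffer (500 mM NaCl, pH 7.0) with 1x EvaGreen. ΔH and ΔS come from a Van't Hoff linear fit of 1/Tm against ln(CT/4) over 1-20 uM, using HRM Tm values.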

[3] = duplex formation enthalpy ΔH (Van't Hoff fit of HRM Tm); higher = less exothermic duplex formation; details: temperature for dG: 50 °C, NaCl: 500 mM (unadjusted)
Protocol: as §1

[4] = duplex formation entropy ΔS (Van't Hoff fit of HRM Tm); higher = smaller entropy loss on duplex formation; details: temperature for dG: 50 °C, NaCl: 500 mM (unadjusted)
Protocol: as §1

[5] = duplex concentration 1 µM, backbone: PO-PO (both strands phosphodiester DNA)
[6] = duplex concentration 1 µM, backbone: PS-PO (listed strand fully phosphorothioate, complement phosphodiester)
[7] = duplex concentration 1 µM, backbone: PS-PS (both strands fully phosphorothioate)
[8] = duplex concentration 2.5 µM, backbone: PO-PO (both strands phosphodiester DNA)
[9] = duplex concentration 2.5 µM, backbone: PS-PO (listed strand fully phosphorothioate, complement phosphodiester)
[10] = duplex concentration 2.5 µM, backbone: PS-PS (both strands fully phosphorothioate)
[11] = duplex concentration 5 µM, backbone: PO-PO (both strands phosphodiester DNA)
[12] = duplex concentration 5 µM, backbone: PS-PO (listed strand fully phosphorothioate, complement phosphodiester)
[13] = duplex concentration 5 µM, backbone: PS-PS (both strands fully phosphorothioate)
[14] = duplex concentration 7.5 µM, backbone: PO-PO (both strands phosphodiester DNA)
[15] = duplex concentration 7.5 µM, backbone: PS-PO (listed strand fully phosphorothioate, complement phosphodiester)
[16] = duplex concentration 7.5 µM, backbone: PS-PS (both strands fully phosphorothioate)
[17] = duplex concentration 10 µM, backbone: PO-PO (both strands phosphodiester DNA)
[18] = duplex concentration 10 µM, backbone: PS-PO (listed strand fully phosphorothioate, complement phosphodiester)
[19] = duplex concentration 10 µM, backbone: PS-PS (both strands fully phosphorothioate)
[20] = duplex concentration 15 µM, backbone: PO-PO (both strands phosphodiester DNA)
[21] = duplex concentration 15 µM, backbone: PS-PO (listed strand fully phosphorothioate, complement phosphodiester)
[22] = duplex concentration 15 µM, backbone: PS-PS (both strands fully phosphorothioate)
[23] = duplex concentration 20 µM, backbone: PO-PO (both strands phosphodiester DNA)
[24] = duplex concentration 20 µM, backbone: PS-PO (listed strand fully phosphorothioate, complement phosphodiester)
[25] = duplex concentration 20 µM, backbone: PS-PS (both strands fully phosphorothioate)
[26] = backbone: PO-PO (both strands phosphodiester DNA)
[27] = backbone: PS-PO (listed strand fully phosphorothioate, complement phosphodiester)
[28] = backbone: PS-PS (both strands fully phosphorothioate)

With GTGAGCAGAAGGGGTT the duplex melting temperature [1, 5] was 64.4 ± 0.57 °C, the duplex melting temperature [1, 6] was 59.41 ± 0.21 °C and the duplex melting temperature [1, 7] was 51.01 ± 0.18 °C. The duplex melting temperature [1, 8] was 66.59 ± 0.48 °C, the duplex melting temperature [1, 9] was 62.57 ± 0.13 °C and the duplex melting temperature [1, 10] was 54.75 ± 0.25 °C. The duplex melting temperature [1, 11] was 68.752 ± 0.066 °C, the duplex melting temperature [1, 12] was 64.68 ± 0.15 °C and the duplex melting temperature [1, 13] was 56.88 ± 0.17 °C. It also gave a duplex melting temperature [1, 14] of 70.17 ± 0.27 °C, a duplex melting temperature [1, 15] of 66 ± 0.37 °C and a duplex melting temperature [1, 16] of 58.06 ± 0.31 °C. The duplex melting temperature [1, 17] was 71.2 ± 0.18 °C, the duplex melting temperature [1, 18] was 66.75 ± 0.18 °C and the duplex melting temperature [1, 19] was 58.956 ± 0.043 °C. The duplex melting temperature [1, 20] was 72.73 ± 0.15 °C, the duplex melting temperature [1, 21] was 68.05 ± 0.21 °C and the duplex melting temperature [1, 22] was 60.17 ± 0.3 °C. The duplex melting temperature [1, 23] was 73.73 ± 0.092 °C, the duplex melting temperature [1, 24] was 69.05 ± 0.47 °C and the duplex melting temperature [1, 25] was 60.93 ± 0.33 °C. For the same sequence, the “duplex formation free energy ΔG50” value [2, 26] was -12.7 ± 0.19 kcal/mol, the “duplex formation free energy ΔG50” value [2, 27] was -11.81 ± 0.093 kcal/mol and the “duplex formation free energy ΔG50” value [2, 28] was -10.06 ± 0.071 kcal/mol. The “duplex formation enthalpy ΔH” value [3, 26] was -71 ± 3.3 kcal/mol, the “duplex formation enthalpy ΔH” value [3, 27] was -71.4 ± 2 kcal/mol and the “duplex formation enthalpy ΔH” value [3, 28] was -66.3 ± 3 kcal/mol. The “duplex formation entropy ΔS” value [4, 26] was -180 ± 9.6 cal/mol/K, the “duplex formation entropy ΔS” value [4, 27] was -184 ± 6 cal/mol/K and the “duplex formation entropy ΔS” value [4, 28] was -174 ± 8.9 cal/mol/K.
For GGTGGCGTTCTT, the duplex melting temperature [1, 7] was 40.15 ± 0.21 °C, the duplex melting temperature [1, 8] was 61.9 °C and the duplex melting temperature [1, 10] was 44.6 ± 0.65 °C. The duplex melting temperature [1, 11] was 63 ± 0.79 °C, the duplex melting temperature [1, 13] was 48.03 ± 0.26 °C and the duplex melting temperature [1, 14] was 64.6 ± 0.54 °C. For the same sequence, the duplex melting temperature [1, 15] was 57 °C, the duplex melting temperature [1, 16] was 49.76 ± 0.44 °C and the duplex melting temperature [1, 17] was 65.58 ± 0.13 °C. It also gave a duplex melting temperature [1, 18] of 58.31 ± 0.53 °C, a duplex melting temperature [1, 19] of 51.3 ± 0.97 °C and a duplex melting temperature [1, 20] of 66.42 ± 0.23 °C. The duplex melting temperature [1, 21] was 60.44 ± 0.39 °C, the duplex melting temperature [1, 22] was 53.7 ± 1.4 °C and the duplex melting temperature [1, 23] was 67.68 ± 0.13 °C. The duplex melting temperature [1, 24] was 61.54 ± 0.24 °C, the duplex melting temperature [1, 25] was 55.8 ± 0.86 °C and the “duplex formation free energy ΔG50” value [2, 27] was -9.41 ± 0.08 kcal/mol. The “duplex formation free energy ΔG50” value [2, 28] was -8.491 ± 0.033 kcal/mol, the “duplex formation enthalpy ΔH” value [3, 27] was -45.3 ± 2.7 kcal/mol and the “duplex formation enthalpy ΔH” value [3, 28] was -41.1 ± 3.2 kcal/mol. For the same sequence, the “duplex formation entropy ΔS” value [4, 27] was -111 ± 8.2 cal/mol/K and the “duplex formation entropy ΔS” value [4, 28] was -101 ± 9.8 cal/mol/K.
With TAGACGCGGCCTCTTTCC the duplex melting temperature [1, 5] was 73.91 ± 0.44 °C, the duplex melting temperature [1, 6] was 67.6 °C and the duplex melting temperature [1, 8] was 74.76 ± 0.23 °C. For the same sequence, the duplex melting temperature [1, 9] was 69 ± 0.71 °C, the duplex melting temperature [1, 11] was 76.52 ± 0.15 °C and the duplex melting temperature [1, 12] was 70.8 ± 0.46 °C. For the same sequence, the duplex melting temperature [1, 14] was 77.7 ± 0.27 °C, the duplex melting temperature [1, 15] was 71.32 ± 0.62 °C and the duplex melting temperature [1, 16] was 66.47 ± 0.089 °C. It also gave a duplex melting temperature [1, 17] of 78.58 ± 0.21 °C, a duplex melting temperature [1, 18] of 72.01 ± 0.38 °C and a duplex melting temperature [1, 19] of 67.44 ± 0.059 °C. It also gave a duplex melting temperature [1, 20] of 79.83 ± 0.13 °C, a duplex melting temperature [1, 21] of 73.3 ± 0.19 °C and a duplex melting temperature [1, 22] of 68.13 ± 0.13 °C. The duplex melting temperature [1, 23] was 80.63 ± 0.22 °C, the duplex melting temperature [1, 24] was 73.84 ± 0.11 °C and the duplex melting temperature [1, 25] was 68.81 ± 0.13 °C. The “duplex formation free energy ΔG50” value [2, 26] was -16.4 ± 0.68 kcal/mol, the “duplex formation free energy ΔG50” value [2, 27] was -14.9 ± 0.32 kcal/mol and the “duplex formation free energy ΔG50” value [2, 28] was -13.4 ± 0.56 kcal/mol. For the same sequence, the “duplex formation enthalpy ΔH” value [3, 26] was -99.8 ± 8.6 kcal/mol, the “duplex formation enthalpy ΔH” value [3, 27] was -103 ± 5.1 kcal/mol and the “duplex formation enthalpy ΔH” value [3, 28] was -101 ± 11 kcal/mol. For the same sequence, the “duplex formation entropy ΔS” value [4, 26] was -258 ± 24 cal/mol/K, the “duplex formation entropy ΔS” value [4, 27] was -272 ± 15 cal/mol/K and the “duplex formation entropy ΔS” value [4, 28] was -272 ± 32 cal/mol/K.
With GATTGTATCATCGACATCACACTACC the duplex melting temperature [1, 5] was 73.69 ± 0.2 °C, the duplex melting temperature [1, 6] was 65.7 ± 0.68 °C and the duplex melting temperature [1, 7] was 56.3 ± 0.93 °C. It also gave a duplex melting temperature [1, 8] of 74.91 ± 0.39 °C, a duplex melting temperature [1, 9] of 67.05 ± 0.59 °C and a duplex melting temperature [1, 10] of 58.43 ± 0.52 °C. It also gave a duplex melting temperature [1, 11] of 76.04 ± 0.6 °C, a duplex melting temperature [1, 12] of 68.37 ± 0.47 °C and a duplex melting temperature [1, 13] of 59.81 ± 0.47 °C. It also gave a duplex melting temperature [1, 14] of 76.92 ± 0.26 °C, a duplex melting temperature [1, 15] of 68.77 ± 0.45 °C and a duplex melting temperature [1, 16] of 60.92 ± 0.21 °C. It also gave a duplex melting temperature [1, 17] of 77.78 ± 0.12 °C, a duplex melting temperature [1, 18] of 69.57 ± 0.28 °C and a duplex melting temperature [1, 19] of 61.49 ± 0.14 °C. It also gave a duplex melting temperature [1, 20] of 78.7 ± 0.1 °C, a duplex melting temperature [1, 21] of 70.36 ± 0.14 °C and a duplex melting temperature [1, 22] of 62.51 ± 0.2 °C. For the same sequence, the duplex melting temperature [1, 23] was 79.317 ± 0.061 °C, the duplex melting temperature [1, 24] was 70.75 ± 0.1 °C and the duplex melting temperature [1, 25] was 63.05 ± 0.085 °C. The “duplex formation free energy ΔG50” value [2, 26] was -18.3 ± 0.7 kcal/mol, the “duplex formation free energy ΔG50” value [2, 27] was -16.1 ± 0.27 kcal/mol and the “duplex formation free energy ΔG50” value [2, 28] was -11.7 ± 0.069 kcal/mol. For the same sequence, the “duplex formation enthalpy ΔH” value [3, 26] was -127 ± 9.1 kcal/mol, the “duplex formation enthalpy ΔH” value [3, 27] was -137 ± 4.9 kcal/mol and the “duplex formation enthalpy ΔH” value [3, 28] was -99.2 ± 2.2 kcal/mol. The “duplex formation entropy ΔS” value [4, 26] was -336 ± 26 cal/mol/K, the “duplex formation entropy ΔS” value [4, 27] was -375 ± 14 cal/mol/K and the “duplex formation entropy ΔS” value [4, 28] was -271 ± 6.5 cal/mol/K.
TGTCGCACCCTACTA showed a duplex melting temperature [1, 5] of 62.8 ± 2.6 °C, a duplex melting temperature [1, 7] of 49.8 ± 0.68 °C and a duplex melting temperature [1, 8] of 66.1 °C. For the same sequence, the duplex melting temperature [1, 9] was 59.14 ± 0.13 °C, the duplex melting temperature [1, 10] was 53.99 ± 0.17 °C and the duplex melting temperature [1, 11] was 68.24 ± 0.43 °C. The duplex melting temperature [1, 12] was 61.72 ± 0.17 °C, the duplex melting temperature [1, 13] was 56.51 ± 0.21 °C and the duplex melting temperature [1, 14] was 69.66 ± 0.3 °C. It also gave a duplex melting temperature [1, 15] of 62.92 ± 0.17 °C, a duplex melting temperature [1, 16] of 57.65 ± 0.22 °C and a duplex melting temperature [1, 17] of 71.02 ± 0.2 °C. It also gave a duplex melting temperature [1, 18] of 64.01 ± 0.12 °C, a duplex melting temperature [1, 19] of 58.5 ± 0.23 °C and a duplex melting temperature [1, 20] of 72.66 ± 0.19 °C. It also gave a duplex melting temperature [1, 21] of 65.449 ± 0.05 °C, a duplex melting temperature [1, 22] of 59.67 ± 0.14 °C and a duplex melting temperature [1, 23] of 73.62 ± 0.15 °C. For the same sequence, the duplex melting temperature [1, 24] was 66.44 ± 0.098 °C, the duplex melting temperature [1, 25] was 60.75 ± 0.17 °C and the “duplex formation free energy ΔG50” value [2, 26] was -12.1 ± 0.25 kcal/mol. The “duplex formation free energy ΔG50” value [2, 27] was -10.95 ± 0.05 kcal/mol, the “duplex formation free energy ΔG50” value [2, 28] was -9.838 ± 0.072 kcal/mol and the “duplex formation enthalpy ΔH” value [3, 26] was -63.3 ± 4.2 kcal/mol. For the same sequence, the “duplex formation enthalpy ΔH” value [3, 27] was -64.2 ± 1.2 kcal/mol, the “duplex formation enthalpy ΔH” value [3, 28] was -60.7 ± 3.1 kcal/mol and the “duplex formation entropy ΔS” value [4, 26] was -158 ± 12 cal/mol/K. The “duplex formation entropy ΔS” value [4, 27] was -165 ± 3.6 cal/mol/K and the “duplex formation entropy ΔS” value [4, 28] was -157 ± 9.5 cal/mol/K.
